{"source": "paper PMC12622350"}
{"target": "T1, NikR (Helicobacter pylori 26695) (UniProt O25896)", "T1 sequence": "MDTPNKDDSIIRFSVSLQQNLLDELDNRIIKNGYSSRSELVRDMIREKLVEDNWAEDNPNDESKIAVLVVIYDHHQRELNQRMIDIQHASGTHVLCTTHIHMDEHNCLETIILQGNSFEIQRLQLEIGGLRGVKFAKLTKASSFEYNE", "test": "EMSA"}
{"sequence": "TAGCAATGTTTTGATTTACTAAGATTAACAGAAGCGTTCATTAACTAATTATTATTTAAAATGAATTAGTGTTATATCTTTGAAGCGCTATAAAATCGTTATTAGAAGTGCGTTTAATAC (double strand) [OPhp0073]", "binding": "binds"}
{"sequence": "TTGGGTTGATTTAACTCAAGCAAATTTTCTTCAATCCTAACAAATTTGGCTGCAAATTAAAAAATTTAAGCTTTTTTCTTTTTTTTTGATTTAATACTAGGTATAATTTTAATTCCACCT (double strand) [Probe-flgR 1]", "binding": "binds"}
{"sequence": "TAAGCTTTTTTCTTTTTTTTTGATTTAATACTAGGTATAATTTTAATTCCACCTAACAAGGAAAAGCTATGAAAGTAACACAAGGCATTGCTAACGACTTTTTTGCCCTAACAAACACGA (double strand) [Probe-flgR 2]", "binding": "binds"}
